Data published in patent US20180079822A1 (UNITED STATES OF AMERICA AS REPRESENTED BY THE SECRETARY OF …, published 2018).

Experiments:
CD20-Hoc fusion protein [1] = biological target: T1, CD20-Hoc fusion protein (human; T4 phage, UniProt P11836 142-187; P18056 1-376, limits assumed); experiment: SPR binding kinetics
T1 construct: also called Hoc-CD20; Hoc-CD

CD20-Hoc fusion protein [2] = biological target: T1, CD20-Hoc fusion protein; experiment: SPR; KD on Hoc divided by KD on Hoc-CD20
Hoc = biological target: T2, Hoc (T4 phage, UniProt P18056 1-376, limits assumed); experiment: SPR
T2 construct: Purified Hoc used as control for the fusion partner; also called outer capsid protein Hoc of T4 phage

CD20-Hoc fusion protein [3] = biological target: T1, CD20-Hoc fusion protein; experiment: SPR

T1 sequence (P11836 142-187, tags or fused parts left off): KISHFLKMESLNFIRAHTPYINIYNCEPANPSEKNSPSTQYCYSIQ
T2 sequence (P18056 whole entry, the tested form may be a part): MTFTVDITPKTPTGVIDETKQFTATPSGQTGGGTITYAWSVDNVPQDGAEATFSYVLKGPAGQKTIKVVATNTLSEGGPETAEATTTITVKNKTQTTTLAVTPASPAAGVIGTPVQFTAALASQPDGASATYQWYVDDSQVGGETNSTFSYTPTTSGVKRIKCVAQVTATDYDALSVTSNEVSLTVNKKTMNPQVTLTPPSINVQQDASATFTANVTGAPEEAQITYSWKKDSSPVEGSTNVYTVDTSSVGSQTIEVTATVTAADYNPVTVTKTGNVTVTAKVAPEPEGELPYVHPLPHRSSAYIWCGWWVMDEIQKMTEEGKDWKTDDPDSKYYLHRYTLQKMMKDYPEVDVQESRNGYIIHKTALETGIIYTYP

| Binder | differential binding to CD20-Hoc fusion against Hoc (CD20-Hoc fusion protein [1]) [fold] | Ratio Hoc KD/Hoc-CD20 KD (CD20-Hoc fusion protein [2]) [ratio] | Kd (Hoc) [nM] | koff (Hoc) [s⁻¹] | kon (Hoc) [M⁻¹ s⁻¹] | Kd (CD20-Hoc fusion protein [3]) [nM] | koff (CD20-Hoc fusion protein [3]) [s⁻¹] | kon (CD20-Hoc fusion protein [3]) [M⁻¹ s⁻¹] |
| --- | --- | --- | --- | --- | --- | --- | --- | --- |
| M24E (VHH, also called bt-M24E; anti-CD20 sdAb M24E) VHH: DVQLQASGGGLVQAGGSLRLSCAASGSTFSIKHHGWYRRAPGNQREWVAGISSENITNVAEAVKGRFTISRDNAKNTVYLQMNSLKVEDTAVYYCYAQDNDYRFLHRFWGQGTQVTVSL | ~1000 | 40 | 230 | 0.046 | 200000 | 5.7 | 0.0043 | 750000 |
| M112D (VHH, also called bt-M112D; anti-CD20 sdAb M112D) VHH: DVQLQASGGGLVQAEGSLRLSCAASGSTFGIKHHGWYRRAPGNQREWVAGISSENITNVAEAVKGRFTISRDNAKNTVYLQMNSLKVEDTAVYYCYAQDNNYRFLHRFWGQGTQVTVSL | ~100 | 81 | 2100 | 0.32 | 150000 | 26 | 0.007 | 280000 |
| M28C (VHH, also called bt-M28C; anti-CD20 sdAb M28C) VHH: DVQLQASGGGLVQAGGSLRLSCAASGSTFSIKHHGWYRRAPGNQREWVAGINSENITNVAGAVKGRFTISRDNAKNTVYLQMNSLKVEDTAVYFCYAQDNDYRFLHRFWGQGTQVTVSL | ~1000 | 353 | 5300 | 0.36 | 68000 | 15 | 0.0045 | 300000 |
